Experimental findings from publication PMC10397247 are described below.

The target of one experiment is T1, P7A-bH.
T1 chain: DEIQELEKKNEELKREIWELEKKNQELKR
The experiment in a line: two-hybrid library CCNG1.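 Further: natural log of median RNA to DNA barcode read ratio; higher means stronger binding.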

The target of another experiment is T2, P5A-bH.
T2 chain: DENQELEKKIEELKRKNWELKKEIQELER
The experiment in a line: two-hybrid library CCNG1.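 Further: natural log of median RNA to DNA barcode read ratio; higher means stronger binding.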

A further experiment deals with T3, P6A-bH.
T3 chain: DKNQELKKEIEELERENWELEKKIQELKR
Nature of the experiment: two-hybrid library CCNG1.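 Further: natural log of median RNA to DNA barcode read ratio; higher means stronger binding.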

In another experiment the target is T4, P9A-bH.
T4 chain: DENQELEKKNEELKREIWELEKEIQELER
The experiment in a line: two-hybrid library CCNG1.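 Further: natural log of median RNA to DNA barcode read ratio; higher means stronger binding.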

The next experiment addresses T5, P8A-bH.
T5 chain: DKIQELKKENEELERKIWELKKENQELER
Nature of the experiment: two-hybrid library CCNG1.

The next experiment concerns the target T6, P4A-bH.
T6 chain: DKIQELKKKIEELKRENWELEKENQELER
Nature of the experiment: two-hybrid library CCNG1.

Another experiment addresses T7, P3A-bH.
T7 chain: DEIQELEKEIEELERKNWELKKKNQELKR
The experiment in a line: two-hybrid library CCNG1.

The target of a further experiment is T8, 4H3427-AA.
T8 chain: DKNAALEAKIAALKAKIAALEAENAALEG
Nature of the experiment: two-hybrid library CCmax. The following applies: mean of both orientations.

The target of the next experiment is T9, 4H3782-AA.
T9 chain: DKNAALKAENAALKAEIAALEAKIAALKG
The experiment in a line: two-hybrid library CCmax. The following applies: mean of both orientations.

The target of a further experiment is T10, 4H918-AA.
T10 chain: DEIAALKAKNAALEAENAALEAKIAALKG
Nature of the experiment: two-hybrid library CCmax. The following applies: mean of both orientations.

A further experiment addresses T11, 4H953-AA.
T11 chain: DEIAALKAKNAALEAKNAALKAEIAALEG
The experiment in a line: two-hybrid library CCmax. The following applies: mean of both orientations.

For a further experiment, the target named is T12, 4H4001-AA.
T12 chain: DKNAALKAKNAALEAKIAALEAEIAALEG
Nature of the experiment: two-hybrid library CCmax. The following applies: mean of both orientations.

For a further experiment, the target named is T13, 4H797-AA.
T13 chain: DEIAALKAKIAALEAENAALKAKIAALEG
The experiment in a line: two-hybrid library CCmax. The following applies: mean of both orientations.

The next experiment deals with T14, 4H3354-AA.
T14 chain: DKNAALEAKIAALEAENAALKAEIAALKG
The experiment in a line: two-hybrid library CCmax.

The next experiment concerns the target T15, 4H568-AA.
T15 chain: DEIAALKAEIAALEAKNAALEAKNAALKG
The experiment in a line: two-hybrid library CCmax. The following applies: mean of both orientations.

Another experiment has as its target T16, 4H967-AA.
T16 chain: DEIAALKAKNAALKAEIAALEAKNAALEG
The experiment in a line: two-hybrid library CCmax. The following applies: mean of both orientations.

The next experiment deals with T17, 4H3438-AA.
T17 chain: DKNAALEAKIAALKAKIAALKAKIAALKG
Nature of the experiment: two-hybrid library CCmax.

In another experiment the target is T18, 4H687-AA.
T18 chain: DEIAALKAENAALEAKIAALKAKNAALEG
Nature of the experiment: two-hybrid library CCmax. The following applies: mean of both orientations.

For another experiment, the target named is T19, 4H3855-AA.
T19 chain: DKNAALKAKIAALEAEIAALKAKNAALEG
Nature of the experiment: two-hybrid library CCmax. The following applies: mean of both orientations.

The next experiment concerns the target T20, 4H717-AA.
T20 chain: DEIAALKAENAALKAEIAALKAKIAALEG
The experiment in a line: two-hybrid library CCmax. The following applies: mean of both orientations.

The target of another experiment is T21, 4H883-AA.
T21 chain: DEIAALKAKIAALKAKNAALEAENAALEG
Nature of the experiment: two-hybrid library CCmax. The following applies: mean of both orientations.

As to DEIQELEKEIEELERKNWELKKKNQELKR [P3A-bH], the interaction score with P7A-bH is 0.468; with P5A-bH, 0.779; with P6A-bH it was 0.553; in the experiment with P9A-bH it was 0.465; in the experiment with P8A-bH, -1.03; with P4A-bH, 1.77. Moreover, in the experiment with P3A-bH, the interaction score is -0.68.

For DKNAALEAKIAALEAENAALKAEIAALKG [4H3354-AA], the interaction score is -1.79 in the experiment with 4H3427-AA; -1.79 with 4H3782-AA; -1.56 with 4H918-AA; -1.6 with 4H953-AA; -1.64 with 4H4001-AA; -0.991 with 4H797-AA. Besides, the interaction score was 2.03 with 4H3354-AA; -1.54 with 4H568-AA; -1.42 in the experiment with 4H967-AA; -0.709 with 4H3438-AA; -1.69 with 4H687-AA; -1.85 with 4H3855-AA. In addition, the interaction score in the experiment with 4H717-AA is -1.69; in the experiment with 4H883-AA it was -2.
